From article PMC8104961
“And” between values parts separate entries of the source, which are not always exact repeats. Equal values may be shown once.

What was measured:
[1] = target: S. cerevisiae Ire1 kinase/RNase domains (WT Sc Ire1-KR) (S. cerevisiae); test: AUC; sedimentation equilibrium, 20°C; 2.5, 5 and 10 μM protein at 7,000, 10,000 and 14,000 rpm; 50 mM Tris/HCl pH 7.5, 200 mM NaCl, 2 mM Mg(OAc)2, 2 mM TCEP; global fit to a self-association equilibrium model; monomer-dimer equilibrium constant
[2] = target: Sc Ire1-KR(K992D,Y1059R) (S. cerevisiae); test: cross-linking; 12.5 μM Ire1-KR, 2 mM ADP, 1 mM BS3 (bissulfosuccinimidyl suberate), 2 h on ice; 50 mM HEPES, 200 mM NaCl, 2 mM Mg(OAc)2, 2 mM TCEP, 10% glycerol; SDS-PAGE, coomassie blue or SYPRO Ruby
[3] = target: Sc Ire1-KR(K992D,Y1059R) (S. cerevisiae); test: AUC; sedimentation equilibrium, 20°C; 2.5, 5 and 10 μM protein at 7,000, 10,000 and 14,000 rpm; 50 mM Tris/HCl pH 7.5, 200 mM NaCl, 2 mM Mg(OAc)2, 2 mM TCEP; global fit to a self-association equilibrium model; monomer-dimer equilibrium constant
[4] = target: Sc Ire1-KR(K992R,Y1059D) (S. cerevisiae); test: cross-linking; 12.5 μM Ire1-KR, 2 mM ADP, 1 mM BS3 (bissulfosuccinimidyl suberate), 2 h on ice; 50 mM HEPES, 200 mM NaCl, 2 mM Mg(OAc)2, 2 mM TCEP, 10% glycerol; SDS-PAGE, coomassie blue or SYPRO Ruby

Substance: S. cerevisiae Ire1 kinase/RNase domains (WT Sc Ire1-KR) (domain or fragment)
- Kd [1]: 57 µM

Substance: Sc Ire1-KR(K992D,Y1059R) (domain or fragment)
- stoichiometry N [2]: 2 and 4
- Kd [3]: 0.98 µM

Substance: Sc Ire1-KR(K992R,Y1059D) (domain or fragment)
- stoichiometry N [4]: 2
